B1: PRT1459 (protein, listed as Homo sapiens)
chain: CQCNSHSKSCHYNISVDPFPFEHFRGGGGVCDDCEHNTTGRNCELCKDYFFRQVGADPSAIDVCKP
B2: PRT477 (protein, listed as Homo sapiens)
chain: LCSQALCSGHGRCVRRTSHPKALLLLNPASFSIQLTPGGGPLSLRGALSLGDQAQMAVEFKCRCYPGWQAPWCE
B3: PRT499 (protein, listed as Homo sapiens)
chain: CNCHNKAKDCYYDESVAKQKKSLNTAGQFRGGGVCINCLQNTMGINCETCIDGYYRPHKVSPYEDEPCRP
B4: PRT1182 (protein, listed as Homo sapiens)
chain: PREPCPGGACRVIDGCGSDAGPGMPGTAASGVCGPHGRCVSQPGGNFSCICDSGFTGTYCH
B5: PRT480 (protein, listed as Homo sapiens)
chain: VCSLHLCRNNGRCIRKMWNAPSYLHLNPASYHIEASEDGEFTVKGKASDTDLAVMADTFSCHCYQGYEGADCR
B6: PRT514 (protein, listed as Homo sapiens)
chain: CNCHGKAEECYYDENVARRNLSLNIRGKYIGGGVCINCTQNTAGINCETCTDGFFRPKGVSPNYPRPCQP

What was measured:
Format in all cases: cell-based
E. coli DH5α = experiment: Antibacterial activity: MIC and growth curve against E. coli DH5α in 96-well plate; conditions: minimal inhibitory concentration against E. coli DH5α; 96-well plate, 5×10^5 CFU/mL, 37° C., judged after 8 h
Protocol: 1. E. coli DH5α was exemplified. E. coli DH5α was streaked and cultured on LB solid medium. Then, a typical clone was picked and inoculated into common LB liquid medium, cultured at 37° C. with shaking at 185 rpm until the logarithmic growth phase was reached (OD600 of about 0.5). The bacterial culture was centrifuged at 4000×g for 3 min, the supernatant was discarded, and the thalli were resuspended with fresh LB medium.
2. The above-mentioned bacterial suspension was diluted and inoculated into a 96-well plate with the total volume of 100 μL per well and a bacterial count of 5×10^5 CFU/mL.
3. The recombinant protein hF VII-EGF1 was added to the above-mentioned wells with the final protein concentration in the well of the highest protein concentration being 50 μg/mL. Basing on this final concentration, a two-fold serial dilution was performed till a protein concentration gradient consisting of 50, 25, and 12.5 μg/mL was set up. Three parallel wells were set up for each concentration in the gradient.
4. The above-mentioned 96-well plate was placed and cultured at 37° C. in shaking incubator shaking at 175 rpm. Samples were taken every 30 min, the absorbance values were determined at 600 nm wavelength under a ultra violet spectrophotometer, and an inhibition curve was plotted. […] The minimal inhibitory concentration MIC is defined as the lowest concentration of the recombinant protein at which there is no growth of the bacteria.
According to the experimental procedures in Example 14, the minimal inhibitory concentrations (MIC, μg/mL) of the other human-originated EGF domain proteins (PRT2 to PRT1498 in Table 1) for E. coli DH5α were determined.

E. coli BL21 = experiment: MIC against Gram-negative bacteria: E. coli BL21; conditions: 5×10^5 CFU/mL
Protocol: (§1) 1. Gram-negative bacteria, such as E. coli BL21, Pseudomonas aeruginosa, Klebsiella pneumonia, Enterobacter cloacae, Aeromonas hydrophila, Citrobacter diversus, Moraxella catarrhalis, Proteus mirabilis, Proteus vulgaris, Serratia marcescens, etc were streaked on solid LB medium and cultured respectively. Then, typical clones were picked, inoculated into common liquid LB medium respectively, and cultured at 37° C. with shaking at 185 rpm until the McFarland specific turbidity was 0.5. The bacterial culture of each of Gram-negative bacteria was centrifuged at 4000×g for 3 min, the supernatant was discarded, and the thalli were resuspended with fresh LB medium.
(§2) 2. The above-mentioned bacterial suspensions were diluted and inoculated into 96-well plates with the final concentration of the bacterial suspension being 5×10^5 CFU/mL per well.
(§3) 3. Each of the purified human-originated EGF domain proteins (PRT1 to PRT1498 in Table 1) was added to each of the above wells and subjected to two-fold serial dilution in concentration. Three parallel wells were set up for each concentration in the gradient.
(§4) 4. The above-mentioned 96-well plates were placed and cultured at 37° C. in shaking incubator shaking at 175 rpm. […] The minimal inhibitory concentration MIC is defined as the lowest concentration of the recombinant protein at which there is no growth of the bacteria.

Pseudomonas aeruginosa = experiment: MIC against Gram-negative bacteria: Pseudomonas aeruginosa; conditions: 5×10^5 CFU/mL
Protocol: as §1, §2, §3, §4

Klebsiella pneumonia = experiment: MIC against Gram-negative bacteria: Klebsiella pneumonia; conditions: 5×10^5 CFU/mL
Protocol: as §1, §2, §3, §4

Enterobacter cloacae = experiment: MIC against Gram-negative bacteria: Enterobacter cloacae; conditions: 5×10^5 CFU/mL
Protocol: as §1, §2, §3, §4

Aeromonas hydrophila = experiment: MIC against Gram-negative bacteria: Aeromonas hydrophila; conditions: 5×10^5 CFU/mL
Protocol: as §1, §2, §3, §4

Citrobacter diversus = experiment: MIC against Gram-negative bacteria: Citrobacter diversus; conditions: 5×10^5 CFU/mL
Protocol: as §1, §2, §3, §4

Moraxella catarrhalis = experiment: MIC against Gram-negative bacteria: Moraxella catarrhalis; conditions: 5×10^5 CFU/mL
Protocol: as §1, §2, §3, §4

Proteus mirabilis = experiment: MIC against Gram-negative bacteria: Proteus mirabilis; conditions: 5×10^5 CFU/mL
Protocol: as §1, §2, §3, §4

Proteus vulgaris = experiment: MIC against Gram-negative bacteria: Proteus vulgaris; conditions: 5×10^5 CFU/mL
Protocol: as §1, §2, §3, §4

Serratia marcescens = experiment: MIC against Gram-negative bacteria: Serratia marcescens; conditions: 5×10^5 CFU/mL
Protocol: as §1, §2, §3, §4

[1] = 10 h cultivation at 37° C., two-fold serial dilution

| Molecule | MIC (E. coli DH5α) [µg/mL] | MIC against E. coli BL21 (E. coli BL21; 96-well plate, 37° C., 10 h) [µg/mL] | MIC against P. aeruginosa (Pseudomonas aeruginosa; 96-well plate, 37° C., 10 h) [µg/mL] | MIC against K. pneumonia (Klebsiella pneumonia; 96-well plate, 37° C., 10 h) [µg/mL] | MIC against E. cloacae (Enterobacter cloacae; 96-well plate, 37° C., 10 h) [µg/mL] | MIC against A. hydrophila (Aeromonas hydrophila; 96-well plate, 37° C., 10 h) [µg/mL] | MIC against C. diversus (Citrobacter diversus; 96-well plate, 37° C., 10 h) [µg/mL] | MIC against M. catarrhalis (Moraxella catarrhalis; 96-well plate, 37° C., 10 h) [µg/mL] | MIC against P. mirabilis (Proteus mirabilis; 96-well plate, 37° C., 10 h) [µg/mL] | MIC against P. vulgaris (Proteus vulgaris; 96-well plate, 37° C., 10 h) [µg/mL] | MIC against S. marcescens (Serratia marcescens; 96-well plate, 37° C., 10 h) [µg/mL] | also measured |
| --- | --- | --- | --- | --- | --- | --- | --- | --- | --- | --- | --- | --- |
| B1 | 12.5 | – | – | – | – | – | – | – | – | – | – | MIC against E. coli BL21 (E. coli BL21; E. coli BL21, 10 h cultivation at 37° C.): 50 µg/mL; MIC against P. aeruginosa (Pseudomonas aeruginosa; Pseudomonas aeruginosa, 10 h cultivation at 37° C.): 25 µg/mL; MIC against K. pneumonia (Klebsiella pneumonia; Klebsiella pneumonia, 10 h cultivation at 37° C.): 25 µg/mL; MIC against E. cloacae (Enterobacter cloacae; Enterobacter cloacae, 10 h cultivation at 37° C.): 12.5 µg/mL; MIC against A. hydrophila (Aeromonas hydrophila; Aeromonas hydrophila, 10 h cultivation at 37° C.): 25 µg/mL; MIC against C. diversus (Citrobacter diversus; Citrobacter diversus, 10 h cultivation at 37° C.): 50 µg/mL; MIC against M. catarrhalis (Moraxella catarrhalis; Moraxella catarrhalis, 10 h cultivation at 37° C.): 12.5 µg/mL; MIC against P. mirabilis (Proteus mirabilis; Proteus mirabilis, 10 h cultivation at 37° C.): 25 µg/mL; MIC against P. vulgaris (Proteus vulgaris; Proteus vulgaris, 10 h cultivation at 37° C.): 50 µg/mL; MIC against S. marcescens (Serratia marcescens; Serratia marcescens, 10 h cultivation at 37° C.): 25 µg/mL |
| B2 | 12.5 | 50 | 12.5 | 50 | 25 | 12.5 | 25 | 50 | 25 | 12.5 | 25 | – |
| B3 | 12.5 | 25 | 100 | 25 | 12.5 | 25 | 12.5 | 25 | 50 | 25 | 12.5 | – |
| B4 | 12.5 | – | – | – | – | – | – | – | – | – | – | MIC E. coli BL21 (E. coli BL21; [1]): 25 µg/mL; MIC P. aeruginosa (Pseudomonas aeruginosa; [1]): 50 µg/mL; MIC K. pneumonia (Klebsiella pneumonia; [1]): 25 µg/mL; MIC E. cloacae (Enterobacter cloacae; [1]): 25 µg/mL; MIC A. hydrophila (Aeromonas hydrophila; [1]): 12.5 µg/mL; MIC C. diversus (Citrobacter diversus; [1]): 50 µg/mL; MIC M. catarrhalis (Moraxella catarrhalis; [1]): 12.5 µg/mL; MIC P. mirabilis (Proteus mirabilis; [1]): 50 µg/mL; MIC P. vulgaris (Proteus vulgaris; [1]): 12.5 µg/mL; MIC S. marcescens (Serratia marcescens; [1]): 25 µg/mL |
| B5 | 12.5 | 25 | 50 | 25 | 12.5 | 25 | 50 | 25 | 12.5 | 25 | 50 | – |
| B6 | 50 | 12.5 | 50 | 25 | 12.5 | 25 | 12.5 | 25 | 12.5 | 25 | 12.5 | – |

From US9833497B2, “Human originated EGF domain proteins and use of the same” (CHENGDU SOURCEBIO LIMITED-LIABILITY COMPANY, priority 2013, dated 2017)
